Measured values reported in US20240026407A1, “MODIFICATION OF SAPONINS” (GLAXOSMITHKLINE BIOLOGICALS SA, priority 2020, published 2024).

B1: 1022 (protein)
chain: MRKSRSLGLGLVKYILIVVALVGCIQTSPTMDESAINHQAQTIYLRGGFNGWSTATAFDRTEQAGIYVAKTKITMGNHGFKLAPADWSFAWVVSAHENQLVELNKSYRLNTAGGEEDSLFIETRGLYQFTLDITQANQPKLLVKLLSADSAKTPPPHYGEMTSLEFNRFNGEKVEAVFSAKATNNGLREYVHSTTQSLRDPVPSYSRYQEDIAHPRVRSGNIAFDALFALAVDEMKLNSVEQIKDGNYNNGQAIDCSCFETGEKWNYVWTRDLSYAAHLSLAQFDAQRVENSLLFKVSNLRASAPISPFLAGNAPYTQIIQDTGSGGSWPVSTDRMTWAFGATALLANLAEPQRSQFARKAFTALVNTIENDRLVAFDSHLGLYLGEQSFLDWREQSYASWIVDDLSSMSTAISLSTNAGHYQALVLAADLAGQLGDVPAAKKYKGWASALKNAINQHLWLEEKGLYSSLTSGHYHKVALEKFDWLGQSLAIVTGIASDEQARAILSSYPHGPMGAAVIFPQQPNIPVYHNRAIWPFVTAYGLNAAVKGKNVAVTQAALDTLTRAAALNLSNMENLEWLSSEPILLDKTHPQLSGPVINSKRQLWSVAAYLNLVSNTIFGAQPSQQGIEFRPFIPKSFKDQWFKHSQVINLINYQWRGKQFDLQLKFAPSNKKFGAYVVNRVKVNGLAHSGVLVEQALKQHNLIEIELVLDNTVDNNINLVDSEPLAFDPLVYAPLEPKLSVVAKANDYVIQIEDKGNANLTSAAIEYEIYRDGNLLTRVPAGAGVSQWLDKGQAQQAHCYAVAARFVKSQNQSHLSEVVCMGERMQIPVADQRIQSNKPKKILGEQLIFSQWGEADDTLQVHFSIDQPGKYAIQFNYHNPANAINLGISNGVKWLEVVNSSNQQSVKQAAVQFPHTRVDKTQFGDNLSTPVEIELAAGDYKLHLHDFYNMSYLQSNKTYTAAGGMKGISNKFDIYAVTFVLLPLK
modifications: Catenovulum agarivorans
B2: 1060 (protein, listed as Lunatimonas lonarensis)
chain: MTKTFKIGFLLLACVVFVSCSENPKQADCGLCESVGAKWIQVEKELPTEDSLFYLPNPAPLFRKEFGVESHFDSAKLFITAAGYYKATLNGEAIGKNILDPAWTDYTKRVYYAEYDLSAQIQEGTNCFGVSLGNGFYNPLPMRKWGRRNPREDLNVGKPTFIARLVLYYPNGKTKEISTDESWKYSYGPLIKNSVYLGVLYDKGMEIPGWDRPGFNDTGWKSVQVGKGPGGQLQAAFFPAVQVTEEIRPKSIHEIEKDVYIVDMGVNFTGTYKIRLAGNVGDTVTLRFGERLYEDGTLNPMTTVVGQIKAPGIGGPGSPAIAWQTSSYVVDTEPTWFSPDFTYHTFRYMEITGLQKPPLLTDITGLYFHTNVERESHFTSSNSLLNQIQDATTRTFLSNLISVQSDCAVREKFGYGGDLNATAESFIYNFDMRDIYRKTVYDWVDAINDSIFVDTAPFAGIKYCGISWESAYLITQYYLYLYYDETDLVHELYEDNLAWMDKVARIHPEGMVDSGLSDHESLEPVPVQLTGTAHYLQCAEIMETFASLKGDTKNQQRFAELSEKLRAIIKAEFWDKPVTERINRQTLFSTLLFHRIIPEDELGAARDSLVQAVKNGPSGQFNTGIFGTKYVLETLSESVPIDQVYAIVNSTKFPGWGHMISRGATTIWETWQESDNVFTNCHPMFGTVTEWYYRWLGGIRPDPKQPGFKAFVLAPRTPTGLDSISCSYRSPYGDIVSNWRRESGNSVVYDLIIPVGSVASVSLDMKAAQGLSITKDGKAFQPPVTDASTPGEFKLEGGNYKVVVSG
B3: 1070 (protein, listed as Thermobaculum terrenum)
chain: MRKIIAQDPFTRNDPGIPWDQRGQWPASWVAARRLPSPPYVVAYRLAFVLPQAATATLHVTADERYELFLDSERVGRGSERGDADHWFYETYELELPAGPHTLVARVWSLGPLAPYAQLSVRHGFLLAAEPPLTEALSTGIAPWEAKRLEGYSWVNPSPAWGTGGNIALSAAQFPWGVERGEGDGWEPVEVVERAVGRLMALEAPPQHLLRPATLPAMLEVPIRVGRVRHVSAPSSEEVSSLPIRAEQALDEPEWQAMLEGRSSVTVPPHTTRRVIIDLEDYYCAYPELVTSGGEGGAVRLHWAESLYEDGRGRHKGDRDAIEGKYFRGVGDVFLPDGGDSRRFDTLWWQAGRYLELLVRTADSPLTVASLRLRETRYPLEMESAIATGDPDLDATIPLMVRAMQMCSHETYMDCPYYEQLMYAGDTRLEALVTYVMTRDDRLPRKALRMFDASRLASGLTQARYPSRVRQIIAPFALWWVAMVCDYAYWRPGTEYVRELMPGVRATMEAFERWRGSDGLLESPEGWNVTDWVPEWPAGIPPEGEWGRSGLLNWHLALVTRMVADLERALGNPQMAEHFGARAREIADAALRAFWVPSRGLMADDTACQRFSEHTQCLAILSGLLPPAIEEQVGRSLLEARDIARTTIYFSHYLFEACRKLGRVDVLLARLGLWRELVDKGLRTTIEAPEPTRSDCHAWGAHPLYHLFATFLGIRPAGLGFSAVEIAPQPAALRRLEGRLVHPRGDVWVAMEVDEEQIRARVRLPEAVPGVFCWGSRRVPLRPGEETDVVLPRAQG
B4: 1049 (protein, listed as Chitinophaga pinensis)
chain: MKQCMGIWLLFLSLQTWGQQLQVVHLRTDNKTNPLGCQLSPRLSWQLSASYNNCVQQAYQLQFSDDSTTLNSKKHTGKHVESADPFLTLPAAFAGITLLPAHTYYWRVQVWDKAGRPSGWSEVASFINALNGPADWKGAKWIGYEDVVDSMRVVPGVHNGTDKFYQKHKARQRTIVPLFRKAFSVQGKVKSALLYISGLGQYEASLNGVRLGDNFLAPGWTHYDETALYNTYDLTNVLQAGENALGVIVGNGFFNVNKERYRKLSVVYGMPRMICRLLITYENGKTTNIVSGTDWRTSASPITFTSIYGGEDYDAGKEQSGWDQPGFNDTEWKPAIVVKATEKRLLPEEDYPVKVMEVLPVRRITQPQPAVYMYDFGQNASGIIGLKIKGKKGQTVKLIPAELTNDKQLANQKATGSPYYFSYTLKGDGIETWQPRFSYYGFRYVQVEGAAPDTAVHTGDVPEIISLELLHTRNAAPVNGTFSCSNDLFNRIHTLILWAIKSNMQSVLTDCPHREKLSWLEQDYLMGNAIQYSYDIDLLYRKLIRDMKEAQTGEGLVPDIAPEFVFFDDHGFGFRDSPEWGSAGVIVPWLHYRWYGDKTVISDAYPMVKKYVAYLGAKAQHNILSYGLGDWFDNGPQRPGVAQLTPKGVTATAIYYYDLVLAGNMADLLGKTAEAKAFRVQADKVKATFNGEYFHTGTKVYSTGSQTAMAMPLCVGLVEEQYRQAVFSNMVDSIRQQRNQLTAGDIGFHFLVQALQEGGASDLLYEMNNRSDVPGYGFQLAKGATTLTESWAALEQVSNNHLMLGHLLEWFYTGLGGITQQAGSIGYKQLQICPEVVGDITWVKTSYNTPYGTVRSEWEKKDGGMLFRISIPPNSNAIVKLPAKREGRITADGKPLNNQDLSFEKERVVMYLGSGDYEFSTFK
B5: 1005 (protein, listed as Enterococcus casseliflavus)
chain: MTKKWQATWIEPQQEPTRKEPPFSLADMFSGKKVVQDPPEERLLPPHYLKKIFTVENKSIKQASLTMTAHGIYQAKINGQAVSEAIFAPDYTSYTQYLQYQTYDVTHMLKEKNVWSVTLADGWYAGRVSVSGGSAQFGDRLGILGEIEIYYTDGTYEIIVTDEDFVSSHGKYVYSDLFIGEKQDLRLEKENWETDFDLTGFTKVSKADYGFDHLTPQRGPQVKRQEKLAAKSIWWEKDAVIVDFGQVIAGRVQLQIPLADGQEITIEHSEVLDREGHFFNNIVGRNKDQKDVFIGNGREACLEPDFTFHGFRYIKIDGLDVLPDKQSVWAYAIYSDMKATGSFTTSNQKINQLIENIQWSQKGNMLSIPTDCPQRERVGWTGDIQVFGPTATFFMDVYDFLGRWLDNVRLEQQADGQIVDYTPAPRDYFEGESLTGSLSSAGWGDAIVLLPWTLYQRYGKLEILVENYQAMKRWLSFSRKSAAGDKTDDKQYLWDTKFHFGDWMFPSFMIGEDAKGPMETAFVTKDLFGTAFLAHSSQLFAQISQLLDEEEENWSDFSNKVKAAFQKYYWRDDHLTADFQGSYVIALAFDLLDETASKAAAARLTELIIANNYCLDTGFLSIPYLLDVLCDYGYQELALKLLLQEECPSWLYEVNHGATTIWESWASIQPDGTVCDFSFNHYAFGCVGDWLVRRLAGLQVTEPGFTFFTISPLEQTAISSYHLNYTTAYGDIEIERSNDQFHLSVPQNTKAIFQYGETSKVLTSGKHHLTIKGEKIYE
B6: 994 (protein, listed as Catenulispora acidiphila)
chain: MLIRRRFATALALILAFAAVTPVASAAPSPSLSLSASSAGTEVSVSALQTDATTNPLGIDDPHPSLSWKLASQINGEYQSAYRIVVAGSQSDASAGVGSVWDSGEVASGNSVGIAYGGPALASEKTYYWAVQIWDEHGTASGWSAPAQWEMGLLNPGDWQGAQWISPTSASAASPLLRKDFTLAKPVARARAYVFGLGFYELHLNGGKVGDRVLEPASTPYAQRDLYAAYDVTGTVKQGGNAVGLWLGNGYDANFSQYGFRWLGPKQAIVLIDVTFSDGTHQAVTSDGSWTWSPSPITADGIYNGESYDARMVQPGWDAAGFSASSLQPVRTVAAPGGSLVADAMPPIRVTQTLNAVKLTSPSPGVYVYDFGQNVSGWEVLRTQGAAGSTVKMQTAEDLLANGTIDTTTNRNALSTDSYTLAGTGSTETYEPRFTYHGFRYVEVTGDPQTPVVSSLQARVVHADLASTSTFSSSDATLNQIWQNNQRTMLNNQMSTPTDNPVRDERTPPGMDVQAYHDASTAEFGMDTYYANYLRDMPPGTALPSDGGNAQQPDMGGDQVTLAWTLYQQYGDIATLAAMYPLMKKFVDTNATNVPGHIWSTGFGDWCPPDHSSNANGGMGNPSAGACTSEVPIVNTALSYLQASDVAKAATALGQAGDAAHYTQLAGDIANAFNAAFLNSDHASYGDGRETTSILPLAFGMVPAADVPAVGARLVDTVVRGNGGHLDTGIFGTRYLMDALAGIGRTDLAMTVLDQGTYPGYGFEIGKGATTDWEEWTYASSMESHDHAMFAGINASFASRLAGIEPTGPGYSTVSIAPQIPAGLQSVAASVSTVRGTVASSWSVSGGKVTMDVTVPVGATASVRVPSFGQGSVTTVSPAGAGAVQVSAGGTSSTYTVGSGSWEFTGSLVPASSTVLPGTWTQCAVETGNCSVAGTETVAFGAQGKYDYATVSGTVACSNTVFGDPDSGVSKACYAEPAPATTPGAWQQCAAETATCSFAGTETVAFGAQGKYTYATLTGGTPCTTTIFGDPAYGIPKSCFIEAPPPAATTWIPCAAETATCTLTASRDVAFGAHGDYAYRTANAPTTCTNAVFGDPAPGAVKACYLQ

Tests used:
Format in all cases: biochemical, Quillaja saponaria
[1] = Experiment 6-1: screening of rhamnosidases for derhamnosylation of saponins in treated bark extract (2%), QS-17 2296 to QS-18 2150 (PAR %); conditions: TBE 2%, pH 7.5, 30 degC, 18 h; TIC peak area ratio percent of rhamnosylated starting saponin to derhamnosylated product, LCMS/MS; negative controls 4.876, 5.225
[2] = Experiment 6-1: screening of rhamnosidases for derhamnosylation of saponins in treated bark extract (2%), desglucosyl-QS-17 2134 to QS-21 1988 (PAR %); conditions: TBE 2%, pH 7.5, 30 degC, 18 h; TIC peak area ratio percent, LCMS/MS; negative controls 2.719, 2.158
[3] = Experiment 6-1: screening of rhamnosidases for derhamnosylation of saponins in treated bark extract (2%), QS-17 2310 to QS-18 2164 (PAR %); conditions: TBE 2%, pH 7.5, 30 degC, 18 h; TIC peak area ratio percent, LCMS/MS; negative controls 3.061, 2.429
[4] = Experiment 6-1: specificity of rhamnosidases towards other rhamnose residues (C3 saccharide rhamnose, C28 saccharide rhamnose); conditions: TBE 2%, pH 7.5, 30 degC, 18 h; LCMS/MS; negative controls 0.18, 0.17

Molecule	QS-17 (PAR %) [1] [%]	Peak75 (PAR %) [2] [%]	Peak57 (PAR %) [3] [%]	ratio PP/QS-21 [4]
B1	5.190	2.368	2.882	0.15
B2	5.159	2.382	2.888	0.15
B3	5.168	2.275	3.311	0.18
B4	5.211	2.417	2.271	0.18
B5	5.166	2.767	2.799	0.17
B6	5.177	2.147	3.300	0.16
